From patent US20100209436 come the findings set out here.

The target of data set [1] is T1, human OPA1 splice variant 7.
T1 chain: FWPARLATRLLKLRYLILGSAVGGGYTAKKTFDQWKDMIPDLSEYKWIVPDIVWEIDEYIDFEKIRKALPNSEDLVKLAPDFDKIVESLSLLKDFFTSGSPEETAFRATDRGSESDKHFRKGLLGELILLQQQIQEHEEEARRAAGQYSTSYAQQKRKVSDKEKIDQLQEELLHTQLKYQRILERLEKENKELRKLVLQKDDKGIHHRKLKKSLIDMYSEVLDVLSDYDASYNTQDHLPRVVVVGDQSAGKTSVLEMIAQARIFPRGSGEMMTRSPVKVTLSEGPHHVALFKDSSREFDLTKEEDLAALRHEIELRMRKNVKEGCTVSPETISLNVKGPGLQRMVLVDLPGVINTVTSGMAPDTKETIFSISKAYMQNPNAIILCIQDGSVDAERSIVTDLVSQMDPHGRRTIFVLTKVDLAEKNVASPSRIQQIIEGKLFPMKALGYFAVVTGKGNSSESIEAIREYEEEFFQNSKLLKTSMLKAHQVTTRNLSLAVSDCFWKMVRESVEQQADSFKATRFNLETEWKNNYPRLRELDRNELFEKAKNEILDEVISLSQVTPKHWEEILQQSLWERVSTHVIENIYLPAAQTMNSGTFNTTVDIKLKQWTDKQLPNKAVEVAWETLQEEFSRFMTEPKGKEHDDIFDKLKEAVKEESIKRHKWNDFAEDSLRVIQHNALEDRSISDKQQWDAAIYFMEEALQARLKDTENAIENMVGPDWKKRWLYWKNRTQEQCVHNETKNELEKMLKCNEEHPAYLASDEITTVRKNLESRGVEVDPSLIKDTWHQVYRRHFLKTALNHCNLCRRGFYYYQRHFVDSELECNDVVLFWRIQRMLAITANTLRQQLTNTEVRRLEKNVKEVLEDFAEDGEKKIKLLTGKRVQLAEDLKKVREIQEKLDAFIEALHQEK

For data set [2], the target named is T2, human OPA1 splice variant 4.
T2 chain: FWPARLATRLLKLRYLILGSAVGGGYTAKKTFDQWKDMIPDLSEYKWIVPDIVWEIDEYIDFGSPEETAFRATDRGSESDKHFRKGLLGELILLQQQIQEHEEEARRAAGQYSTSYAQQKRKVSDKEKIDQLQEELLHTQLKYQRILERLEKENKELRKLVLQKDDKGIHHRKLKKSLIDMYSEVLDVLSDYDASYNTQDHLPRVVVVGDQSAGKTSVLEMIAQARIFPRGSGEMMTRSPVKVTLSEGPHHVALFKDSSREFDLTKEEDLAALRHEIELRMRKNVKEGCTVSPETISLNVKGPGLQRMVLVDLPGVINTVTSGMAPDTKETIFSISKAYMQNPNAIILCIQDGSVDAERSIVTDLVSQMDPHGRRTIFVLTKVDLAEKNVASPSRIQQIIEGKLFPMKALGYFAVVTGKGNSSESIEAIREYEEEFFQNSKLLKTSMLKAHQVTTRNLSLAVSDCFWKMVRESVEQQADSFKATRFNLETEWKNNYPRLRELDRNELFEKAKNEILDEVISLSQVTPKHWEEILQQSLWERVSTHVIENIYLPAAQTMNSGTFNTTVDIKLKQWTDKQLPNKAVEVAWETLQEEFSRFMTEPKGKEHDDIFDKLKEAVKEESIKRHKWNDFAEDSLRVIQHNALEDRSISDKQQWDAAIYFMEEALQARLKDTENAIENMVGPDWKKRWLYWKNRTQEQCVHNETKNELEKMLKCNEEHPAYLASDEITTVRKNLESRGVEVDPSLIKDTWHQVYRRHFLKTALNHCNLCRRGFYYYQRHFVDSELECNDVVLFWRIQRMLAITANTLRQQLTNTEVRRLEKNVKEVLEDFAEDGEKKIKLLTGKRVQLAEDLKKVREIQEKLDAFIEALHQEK

The target in data set [3] is T3, human OPA1 splice variant 8 (A210V polymorphism).
T3 chain: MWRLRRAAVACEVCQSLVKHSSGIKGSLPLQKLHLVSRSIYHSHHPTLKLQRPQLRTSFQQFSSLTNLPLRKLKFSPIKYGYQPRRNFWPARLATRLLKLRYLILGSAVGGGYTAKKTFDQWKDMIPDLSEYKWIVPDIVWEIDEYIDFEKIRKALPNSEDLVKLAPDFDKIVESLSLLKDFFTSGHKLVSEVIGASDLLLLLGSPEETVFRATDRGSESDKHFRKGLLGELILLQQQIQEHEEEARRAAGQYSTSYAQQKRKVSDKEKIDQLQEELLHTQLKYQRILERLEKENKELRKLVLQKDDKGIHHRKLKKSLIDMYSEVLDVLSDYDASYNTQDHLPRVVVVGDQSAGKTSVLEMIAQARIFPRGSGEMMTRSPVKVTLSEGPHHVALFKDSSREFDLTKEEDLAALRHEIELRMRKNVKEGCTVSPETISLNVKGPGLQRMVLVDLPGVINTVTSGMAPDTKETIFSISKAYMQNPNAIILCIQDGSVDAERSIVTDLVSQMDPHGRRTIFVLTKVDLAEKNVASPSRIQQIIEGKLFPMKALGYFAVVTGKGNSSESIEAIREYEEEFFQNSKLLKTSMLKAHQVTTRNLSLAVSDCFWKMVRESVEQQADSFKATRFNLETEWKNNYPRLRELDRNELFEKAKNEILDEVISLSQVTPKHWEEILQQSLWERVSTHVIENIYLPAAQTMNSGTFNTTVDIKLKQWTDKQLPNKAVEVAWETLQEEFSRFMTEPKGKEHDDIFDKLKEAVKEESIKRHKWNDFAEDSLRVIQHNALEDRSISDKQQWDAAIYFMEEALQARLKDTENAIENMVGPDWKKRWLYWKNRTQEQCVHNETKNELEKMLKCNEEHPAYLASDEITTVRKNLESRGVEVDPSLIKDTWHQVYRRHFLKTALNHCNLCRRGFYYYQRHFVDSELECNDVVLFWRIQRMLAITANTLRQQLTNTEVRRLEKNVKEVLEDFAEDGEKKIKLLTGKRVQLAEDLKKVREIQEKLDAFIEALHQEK

B1: yeast m-AAA protease (subunits Yta10 and Yta12) (protein)
chain 1: MMMWQRYARGAPRSLTSLSFGKASRISTVKPVLRSRMPVHQRLQTLSGLATRNTIHRSTQIRSFHISWTRLNENRPNKEGEGKNNGNKDNNSNKEDGKDKRNEFGSLSEYFRSKEFANTMFLTIGFTIIFTLLTPSSNNSGDDSNRVLTFQDFKTKYLEKGLVSKIYVVNKFLVEAELVNTKQVVSFTIGSVDIFEEQMDQIQDLLNIPPRDRIPIKYIERSSPFTFLFPFLPTIILLGGLYFITRKINSSPPNANGGGGGGLGGMFNVGKSRAKLFNKETDIKISFKNVAGCDEAKQEIMEFVHFLKNPGKYTKLGAKIPRGAILSGPPGTGKTLLAKATAGEANVPFLSVSGSEFVEMFVGVGASRVRDLFTQARSMAPSIIFIDEIDAIGKERGKGGALGGANDEREATLNQLLVEMDGFTTSDQVVVLAGTNRPDVLDNALMRPGRFDRHIQIDSPDVNGRQQIYLVHLKRLNLDPLLTDDMNNLSGKLATLTPGFTGADIANACNEAALIAARHNDPYITIHHFEQAIERVIAGLEKKTRVLSKEEKRSVAYHEAGHAVCGWFLKYADPLLKVSIIPRGQGALGYAQYLPPDQYLISEEQFRHRMIMALGGRVSEELHFPSVTSGAHDDFKKVTQMANAMVTSLGMSPKIGYLSFDQNDGNFKVNKPFSNKTARTIDLEVKSIVDDAHRACTELLTKNLDKVDLVAKELLRKEAITREDMIRLLGPRPFKERNEAFEKYLDPKSNTEPPEAPAATN
chain 2: MLLLSWSRIATKVVRRPVRFRSYYGLTHIKSLHTQYRLLNRLQENKSGNKNEDNNEDAKLNKEIPTDEEVEAIRKQVEKYIEQTKNNTIPANWKEQKRKIDESIRRLEDAVLKQESNRIQEERKEKEEENGPSKAKSNRTKEQGYFEGNNSRNIPPPPPPPPPKPPLNDPSNPVSKNVNLFQIGLTFFLLSFLLDLLNSLEEQSEITWQDFREKLLAKGYVAKLIVVNKSMVKVMLNDNGKNQADNYGRNFYYFTIGSIDSFEHKLQKAQDELDIDKDFRIPVLYVQEGNWAKAMFQILPTVLMIAGIIWLTRRSAQAAGGSRGGIFGLSRSKAKKFNTETDVKIKFKDVAGCDEAKEEIMEFVSFLKEPSRYEKMGAKIPRGAILSGPPGTGKTLLAKATAGEAGVPFYFVSGSEFVEMFVGVGAARVRDLFKTARENAPSIVFIDEIDAIGKARQKGNFSGANDERENTLNQMLVEMDGFTPADHVVVLAGTNRPDILDKALLRPGRFDRHINIDKPELEGRKAIFAVHLHHLKLAGEIFDLKNRLAALTPGFSGADIANVCNEAALIAARSDEDAVKLNHFEQAIERVIGGVERKSKLLSPEEKKVVAYHEAGHAVCGWYLKYADPLLKVSIIPRGQGALGYAQYLPGDIFLLTEQQLKDRMTMSLGGRVSEELHFPSVTSGASDDFKKVTSMATAMVTELGMSDKIGWVNYQKRDDSDLTKPFSDETGDIIDSEVYRIVQECHDRCTKLLKEKAEDVEKIAQVLLKKEVLTREDMIDLLGKRPFPERNDAFDKYLNDYETEKIRKEEEKNEKRNEPKPSTN
Take B1: in data set [1], the “OPA1 processing (western blot, yeast deletion strains)” value is on record as “small isoforms did not accumulate in cells lacking the yeast m-AAA protease subunits Yta10 or Yta12”.

B2: homo-oligomeric murine Afg3l1 complex (Yta10 (1-61)-Afg3l1 (25-789)-Myc) (protein)
chain: MMMWQRYARGAPRSLTSLSFGKASRISTVKPVLRSRMPVHQRLQTLSGLATRNTIHRSTQIGGCAGSGGTVWSSVRACGIALQGHLGRCSQQLALQGKLTSFSPRLYSKPPRGFEKFFKNKKNRKSASPGNSVPPKKEPKNAGPGGDGGNRGGKGDDFPWWKRMQKGEFPWDDKDFRSLAVLGAGVAAGFLYFYFRDPGKEITWKHFVQYYLARGLVDRLEVVNKQFVRVIPVPGTTSERFVWFNIGSVDTFERNLESAQWELGIEPTNQAAVVYTTESDGSFLRSLVPTLVLVSILLYAMRRGPMGTGRGGRGGGLFSVGETTAKILKNNIDVRFADVAGCEEAKLEIMEFVNFLKNPKQYQDLGAKIPKGAMLTGPPGTGKTLLAKATAGEANVPFITVNGSEFLEMFVGVGPARVRDMFAMARKHAPCILFIDEIDAIGRKRGRGHLGGQSEQENTLNQMLVEMDGFNSSTNVVVLAGTNRPDILDPALTRPGRFDRQIYIGPPDIKGRSSIFKVHLRPLKLDGSLSKDALSRKLAALTPGFTGADISNVCNEAALIAARHLSPSVQERHFEQAIERVIGGLEKKTQVLQPSEKTTVAYHEAGHAVVGWFLEHADPLLKVSIIPRGKGLGYAQYLPREQFLYTREQLFDRMCMMLGGRVAEQLFFGQITTGAQDDLRKVTQSAYAQIVQFGMSEKLGQVSFDFPRQGETMVEKPYSEATAQLIDEEVRCLVRSAYNRTLELLTQCREQVEKVGRRLLEKEVLEKADMIELLGPRPFAEKSTYEEFVEGTGSLEEDTSLPEGLKDWNKGREEGGTERGLQESPV
Turning to B2, the “OPA1 processing (western blot, Δyta10Δyta12 yeast)” value in data set [2] is “Afg3l1 and Afg3l2 complexes mediated processing of OPA1 splice variants 4 and 8 in a similar manner”; in data set [1] it was “expression of each of the murine subunits, Afg3l2 or Afg3l1, in Δyta10Δyta12 cells promoted OPA1 processing; the isoform S4 predominantly accumulated in the presence of Afg3l1”; in data set [3], “Afg3l1 and Afg3l2 complexes mediated processing of OPA1 splice variants 4 and 8 in a similar manner”.

B3: murine paraplegin expressed alone (Yta10 (1-61)-paraplegin (44-781)) (protein)
chain: MMMWQRYARGAPRSLTSLSFGKASRISTVKPVLRSRMPVHQRLQTLSGLATRNTIHRSTQIAARGTPVGPAAAGGHAPQSLLLRILTPSFEGISGLLLKQHIVPNAVRLWPLSGSTLYFNTSRMKQKNKDNDKPKGKTPEDDEEEKRRKEREDQMYRERLRTLFIIALVMSLLNSLSTSGGSISWADFVNEMLAKGEVQRVQVVPESDVVEVYLHPGAVVFGRPRLALMYRMQVANIDKFEEKLRAAEDELNIESKDRIPVSYKRTGFFGNALYALGMTAVGLAILWYVFRLAGMTGREGGFSAFNQLKMARFTIVDGKTGKGVSFQDVAGMHEAKLEVREFVDYLKSPERFLQLGAKVPKGALLLGPPGCGKTLLAKAVATEAQVPFLAMAGPEFVEVIGGLGAARVRSLFKEARARAPCIVYIDEIDAVGKKRSTSMSGFSNTEEEQTLNQLLVEMDGMGTTDHVIVLASTNRADVLDNALMRPGRLDRHVFIDLPTLQERREIFEQHLKGLKLTQPSSFYSQRLAELTPGFSGADIANICNEAALHAAREGHTSVHTFNFEYAVERVIAGTAKKSKILSKEEQRVVAFHESGHALVGWLLEHTEAVMKVSIAPRTNAALGFSQMLPRDQYLFTKEQLFERMCMALGGRAAEAISFSRVTSGAQDDLRKVTRIAYSMVKQFGMAPSIGPVSFPEAQEGLMGIGRRPFSQGLQQMMDHEAKLLVAKAYRHTEKVLLDNLDKLQALANALLEKEVINYEDIEALIGPPPHGPKKMIAPQKWIDAEKERQASGEEEAPAP
As to B3, the “OPA1 processing (western blot, Δyta10Δyta12 yeast)” value in data set [1] is reported as “Cleavage of OPA1 upon expression of paraplegin alone was not observed”.
